In the supplement of paper PMC10567573:
± gives the standard deviation.

Assay: protein stability index of a GFP-peptide fusion (GPS, HEK-293T) (PSI 1-6); higher = more stable
Conditions: c terminus: a fixed tail appended
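Also: 24-mer peptide tiles fused after GFP, lentivirally expressed, FACS-sorted into six equal bins by GFP/DsRed ratio, decoded by Illumina sequencing, PSI is the read-weighted mean bin number.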

Sequence	protein stability index (treatment: DMSO)	protein stability index (treatment: MLN4924 1 uM, 8 h)
PVEYRSDVNSFVTECEPSELFQLQ [CDS1]	4.5 ± 0.36	4.55 ± 0.18
EILGCPLPDPNNYYHRRNEMTTTD [CPXM2]	3.24 ± 0.21	3.54 ± 0.56
LETFGHLLSIGPELPKPEVISQLE [ZNF8]	3.94 ± 0.38	3.93 ± 0.19
DQEGLQRITGLSPGRSALIVAVLC [SPNS1]	2.31 ± 0.46	2.27 ± 0.35
TNVVTGHRQSFGTNSDVLAQQFAL [DCAF4]	3.35 ± 0.1	3.43 ± 0.33
AERYGLSGSDVLDNVAYARAFNTD [RAD51]	3.99 ± 0.2	4.07 ± 0.32
TRSKSDPVLHPSEERAAPVLSCEA [FAM189A2]	5.49 ± 0.25	5.61 ± 0.15
CEITKRRRKACQACRFTKCLRVGM [ESRRA]	2.26 ± 0.17	2.32 ± 0.22
LNDAKRELRFLLVYLHGDDHQDSD [FAF2]	2.31 ± 0.36	2.23 ± 0.25
RPDRSSQGGSLPSEEKGHPQEESE [CHGB]	5.75 ± 0.27	5.48 ± 0.38
NGTGDSNDFWRIEVVNRKFGNRIK [POMT2]	3.25 ± 0.26	3.46 ± 0.41
PPPNRMYPPPPPALPSSAPSGPPP [WASL]	5.01 ± 0.3	5.08 ± 0.13
EEGILVAVGQDCYTRIWSLHDARL [DCAF4]	2.26 ± 0.3	2.09 ± 0.31
LNMRSTYAKLAAVAVFFIMLIVYV [SEC22B]	3.14 ± 0.36	3.19 ± 0.23
VGGKIVGSLCAIAGVLTIALPVPV [KCNA4]	3.78 ± 0.78	2.76 ± 0.46
LSDREVVNLFLHFTVNPKPRVEYI [BTBD1]	2.98 ± 0.73	2.5 ± 0.26
DEKQRDPRIEASKVLLCHGELRSK [NET1]	4.42 ± 0.21	4.63 ± 0.22
AGIVRVFSGTPPPPVLSFRLVHTT [FCHO1]	1.99 ± 0.07	2.13 ± 0.57
SPLQTIGEEQTQNPYTELLVLKAH [WDR41]	3.78 ± 0.078	3.75 ± 0.3
YKKGRMMKDISNLEENDETRFILS [SLC6A17]	3.35 ± 0.29	3.09 ± 0.39
SQVSWEQDLKLFLQEPGVFSPTPP [FCHSD1]	3.36 ± 0.4	3.61 ± 0.1
LAVLDWNQRAMDLYKALGAQDLTE [SAT2]	2.41 ± 0.24	2.42 ± 0.19

Sequence	protein stability index (treatment: DMSO)	protein stability index (treatment: MLN4924 1 uM, 8 h)
STLGGDIRESDPEQAPAPGEATAA [TBX6]	5.65 ± 0.14	5.53 ± 0.38
DRAPAEQVPRSPVIKISYSTPQGK [PWWP2B]	4.44 ± 0.29	4.52 ± 0.3
LVLKAHHDIVRFLVQLDDYRFASA [WDR41]	2.96 ± 0.52	2.96 ± 0.67
VSPGVLVLLAVLPVLLLQITVGLV [MOG]	2.92 ± 0.39	2.96 ± 0.51
ESHATLTLAQAHFNNGEYAEAEAL [TTC32]	5.19 ± 0.2	5.04 ± 0.15
QLLEQKQAYWAQAEDTAAPAEESK [CBY2]	5.01 ± 0.25	4.96 ± 0.23
DEKDRIITAFYNEARARARANRGI [DNAJC4]	4 ± 0.35	4.16 ± 0.17
ADDPDDGPVPGTPGLPGSTGNPKS [SPNS1]	5.47 ± 0.39	5.49 ± 0.35
DGNKIFLCHCGKAFSHKSMRDRHV [ZBTB22]	2.39 ± 0.4	2.61 ± 0.56
KISYIGLMTQSSLETHHYVDCGGN [TMEM106C]	2.48 ± 0.24	2.45 ± 0.24
IQQELIKQEQSIISEYEKSLQFDE [RPAIN]	4.64 ± 0.12	4.67 ± 0.079
NLSLVCLPRSEDDDCDDDDDDAQI [DRICH1]	5.42 ± 0.28	5.5 ± 0.26
APYFERSSSKRYTMSRSLDGASVN [EPB41L3]	3.3 ± 0.33	3.44 ± 0.7
TYPFLAMIMLKDRRMTVVGRLEGL [FAF2]	2.66 ± 0.76	2.57 ± 0.46
SRRSMAHILKARKVLTEPEVRYYL [PLK2]	2.48 ± 0.35	2.43 ± 0.15
DFGLAARLEPLEHRRRTICGTPNY [PLK2]	3.17 ± 0.28	3.13 ± 0.21
TIQVHRRYWRSLRVMKVEDREGPS [HDAC6]	2.31 ± 0.21	3.14 ± 0.34
STSGQPYPTSDQEGDPGSKQPRKK [LCOR]	5.5 ± 0.13	5.42 ± 0.19
FTLGDCDVIQALDLSVPLMDVGET [FKBP8]	3.53 ± 0.093	3.54 ± 0.24
RRTPPGQQRPHPRSHSREPRAERK [ELOA2]	5.332 ± 0.008	5.58 ± 0.17
ALLWLSCSIALLRALATSNARAQQ [GNAS]	3.21 ± 0.51	2.99 ± 0.25
DILEVKRLLDHQDNILSLINVNDL [WDR41]	2.24 ± 0.4	2.22 ± 0.25

Sequence	protein stability index (treatment: DMSO)	protein stability index (treatment: MLN4924 1 uM, 8 h)
ECGKAFSRSSILVQHQRVHTGEKP [ZNF24]	3.78 ± 0.3	3.96 ± 0.14
MLLQHQICKEVQAEQEPTRKLFEV [SPAG8]	2.79 ± 0.26	2.78 ± 0.23
IFSAPNYCYRCGNQAAIMELDDTL [PPP2CA]	2.37 ± 0.6	2.29 ± 0.4
LIYGSMEMFPAAQQLYRHGKAYRF [JAGN1]	2.28 ± 0.36	2.21 ± 0.093
IGLRQHHCRKCGKAVCGKCSSKRS [WDFY2]	4.08 ± 0.17	4.15 ± 0.26
GIAQVKIQGQNKEMLAAACQMFLG [FLOT1]	2.34 ± 0.12	2.69 ± 0.1
ALSEQKAQDLGELLATAEQEQLSL [LRRC45]	5.07 ± 0.36	5.27 ± 0.1
ENLIRERSQQQEPLLCPSYQSYFK [KRT33B]	3.39 ± 0.26	3.59 ± 0.59
KRTYWPDLDAKIREALVLRSVRVR [PLD5]	2.4 ± 0.36	2.77 ± 0.38
ERLTAPEILLHPWFESVLEPGYID [TRIB1]	3.26 ± 0.21	3.3 ± 0.3
KSSGRFLWIKFFAAGELESMGFSA [NETO1]	2.59 ± 0.54	2.64 ± 0.73
MFPLHLAALNAHSDCCRKLLSSGF [ANKRD44]	2.57 ± 0.4	2.15 ± 0.31
EAMFCDFPKINHGILYDEEKYKPF [CFHR2]	2.49 ± 0.34	2.81 ± 0.26
EHKSLESLADGGSASPIKDQPVMA [FANCE]	5.43 ± 0.27	5.32 ± 0.2
CRSKTLGYQHVDLQNFSSSWSDGM [SMTNL2]	2.47 ± 0.079	2.41 ± 0.27
LSEKEINAREESLVEELSPASEKK [BCL2L13]	5.42 ± 0.46	5.58 ± 0.15
KILAEAAKLVPMGFTTATEFHQRR [RAD51]	2.56 ± 0.23	2.7 ± 0.52
NEIESRHRELLRLESRIRDVHELF [STX11]	3.54 ± 0.21	3.65 ± 0.22
FKDLNESLNALEDQDLDALMADLV [APBB1IP]	3.19 ± 0.26	3.52 ± 0.26
SSIPRRDDFFRHESGEHFRSLLGY [RAD54B]	2.65 ± 0.21	2.57 ± 0.33
DETLRSGELLNMIVAVIDSAQLQE [INTS3]	2.84 ± 0.18	3.06 ± 0.39
